In IntAct's records for PubMed 31515488:

B1: Phospholipid scramblase 4 (Homo sapiens), Q9NRQ2 (parent)
chain: MSGVVPTAPEQPAGEMENQTKPPDPRPDAPPEYNSHFLPGPPGTAVPPPTGYPGGLPMGYYSPQQPSTFPLYQPVGGIHPVRYQPGKYPMPNQSVPITWMPGPTPMANCPPGLEYLVQLDNIHVLQHFEPLEMMTCFETNNRYDIKNNSDQMVYIVTEDTDDFTRNAYRTLRPFVLRVTDCMGREIMTMQRPFRCTCCCFCCPSARQELEVQCPPGVTIGFVAEHWNLCRAVYSIQNEKKENVMRVRGPCSTYGCGSDSVFEVKSLDGISNIGSIIRKWNGLLSAMADADHFDIHFPLDLDVKMKAMIFGACFLIDFMYFERSPPQRSR
partner: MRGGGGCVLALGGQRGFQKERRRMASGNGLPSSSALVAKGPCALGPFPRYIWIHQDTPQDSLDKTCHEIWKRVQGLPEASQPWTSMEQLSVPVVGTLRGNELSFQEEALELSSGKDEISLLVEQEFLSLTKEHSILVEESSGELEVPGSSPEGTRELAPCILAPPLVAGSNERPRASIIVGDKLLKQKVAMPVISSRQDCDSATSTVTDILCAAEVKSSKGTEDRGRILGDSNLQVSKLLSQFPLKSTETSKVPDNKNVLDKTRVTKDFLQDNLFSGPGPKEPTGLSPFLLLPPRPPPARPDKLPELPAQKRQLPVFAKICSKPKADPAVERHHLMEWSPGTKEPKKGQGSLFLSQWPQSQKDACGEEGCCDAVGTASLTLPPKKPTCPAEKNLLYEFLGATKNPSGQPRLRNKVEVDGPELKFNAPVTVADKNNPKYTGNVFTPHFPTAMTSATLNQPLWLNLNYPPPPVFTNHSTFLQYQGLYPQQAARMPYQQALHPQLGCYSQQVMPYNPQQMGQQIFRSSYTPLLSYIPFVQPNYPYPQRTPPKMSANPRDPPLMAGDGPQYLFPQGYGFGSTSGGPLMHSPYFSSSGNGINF
B2: Segment polarity protein dishevelled homolog DVL-2 (Homo sapiens), O14641 (parent)
chain: MAGSSTGGGGVGETKVIYHLDEEETPYLVKIPVPAERITLGDFKSVLQRPAGAKYFFKSMDQDFGVVKEEISDDNARLPCFNGRVVSWLVSSDNPQPEMAPPVHEPRAELAPPAPPLPPLPPERTSGIGDSRPPSFHPNVSSSHENLEPETETESVVSLRRERPRRRDSSEHGAGGHRTGGPSRLERHLAGYESSSTLMTSELESTSLGDSDEEDTMSRFSSSTEQSSASRLLKRHRRRRKQRPPRLERTSSFSSVTDSTMSLNIITVTLNMEKYNFLGISIVGQSNERGDGGIYIGSIMKGGAVAADGRIEPGDMLLQVNDMNFENMSNDDAVRVLRDIVHKPGPIVLTVAKCWDPSPQAYFTLPRNEPIQPIDPAAWVSHSAALTGTFPAYPGSSSMSTITSGSSLPDGCEGRGLSVHTDMASVTKAMAAPESGLEVRDRMWLKITIPNAFLGSDVVDWLYHHVEGFPERREARKYASGLLKAGLIRHTVNKITFSEQCYYVFGDLSGGCESYLVNLSLNDNDGSSGASDQDTLAPLPGATPWPLLPTFSYQYPAPHPYSPQPPPYHELSSYTYGGGSASSQHSEGSRSSGSTRSDGGAGRTGRPEERAPESKSGSGSESEPSSRGGSLRRGGEASGTSDGGPPPSRGSTGGAPNLRAHPGLHPYGPPPGMALPYNPMMVVMMPPPPPPVPPAVQPPGAPPVRDLGSVPPELTASRQSFHMAMGNPSEFFVDVM
partner: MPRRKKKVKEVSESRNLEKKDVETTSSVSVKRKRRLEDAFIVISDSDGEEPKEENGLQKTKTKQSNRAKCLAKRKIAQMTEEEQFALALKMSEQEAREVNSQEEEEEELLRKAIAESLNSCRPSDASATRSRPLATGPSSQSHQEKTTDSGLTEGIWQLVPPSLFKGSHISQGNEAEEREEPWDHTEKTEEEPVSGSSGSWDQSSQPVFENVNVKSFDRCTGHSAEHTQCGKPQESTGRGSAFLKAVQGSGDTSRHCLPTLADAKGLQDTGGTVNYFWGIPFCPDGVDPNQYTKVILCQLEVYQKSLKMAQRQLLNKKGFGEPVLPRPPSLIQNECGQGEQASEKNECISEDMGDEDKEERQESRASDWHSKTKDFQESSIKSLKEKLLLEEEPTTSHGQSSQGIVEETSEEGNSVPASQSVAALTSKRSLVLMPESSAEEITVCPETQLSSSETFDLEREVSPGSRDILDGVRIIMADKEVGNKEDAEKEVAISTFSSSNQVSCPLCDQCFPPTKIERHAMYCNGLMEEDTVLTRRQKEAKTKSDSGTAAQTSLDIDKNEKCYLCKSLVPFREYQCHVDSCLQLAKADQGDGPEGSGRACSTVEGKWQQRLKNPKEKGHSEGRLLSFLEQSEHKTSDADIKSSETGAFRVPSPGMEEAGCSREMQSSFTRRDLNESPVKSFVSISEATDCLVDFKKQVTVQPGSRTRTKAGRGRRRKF
B3: Sperm surface protein Sp17 (Homo sapiens), Q15506 (parent)
chain: MSIPFSNTHYRIPQGFGNLLEGLTREILREQPDNIPAFAAAYFESLLEKREKTNFDPAEWGSKVEDRFYNNHAFEEQEPPEKSDPKQEESQISGKEEETSVTILDSSEEDKEKEEVAAVKIQAAFRGHIAREEAKKMKTNSLQNEEKEENK
B4: Tuftelin-interacting protein 11 (Homo sapiens), Q9UBB9 (parent)
chain: MSLSHLYRDGEGRIDDDDDERENFEITDWDLQNEFNPNRQRHWQTKEEATYGVWAERDSDDERPSFGGKRARDYSAPVNFISAGLKKGAAEEAELEDSDDEEKPVKQDDFPKDFGPRKLKTGGNFKPSQKGFAGGTKSFMDFGSWERHTKGIGQKLLQKMGYVPGRGLGKNAQGIINPIEAKQRKGKGAVGAYGSERTTQSMQDFPVVDSEEEAEEEFQKELSQWRKDPSGSKKKPKYSYKTVEELKAKGRISKKLTAPQKELSQVKVIDMTGREQKVYYSYSQISHKHNVPDDGLPLQSQQLPQSGKEAKAPGFALPELEHNLQLLIDLTEQEIIQNDRQLQYERDMVVNLFHELEKMTEVLDHEERVISNLSKVLEMVEECERRMQPDCSNPLTLDECARIFETLQDKYYEEYRMSDRVDLAVAIVYPLMKEYFKEWDPLKDCTYGTEIISKWKSLLENDQLLSHGGQDLSADAFHRLIWEVWMPFVRNIVTQWQPRNCDPMVDFLDSWVHIIPVWILDNILDQLIFPKLQKEVENWNPLTDTVPIHSWIHPWLPLMQARLEPLYSPIRSKLSSALQKWHPSDSSAKLILQPWKDVFTPGSWEAFMVKNIVPKLGMCLGELVINPHQQHMDAFYWVIDWEGMISVSSLVGLLEKHFFPKWLQVLCSWLSNSPNYEEITKWYLGWKSMFSDQVLAHPSVKDKFNEALDIMNRAVSSNVGAYMQPGARENIAYLTHTERRKDFQYEAMQERREAENMAQRGIGVAASSVPMNFKDLIETKAEEHNIVFMPVIGKRHEGKQLYTFGRIVIYIDRGVVFVQGEKTWVPTSLQSLIDMAK
partner: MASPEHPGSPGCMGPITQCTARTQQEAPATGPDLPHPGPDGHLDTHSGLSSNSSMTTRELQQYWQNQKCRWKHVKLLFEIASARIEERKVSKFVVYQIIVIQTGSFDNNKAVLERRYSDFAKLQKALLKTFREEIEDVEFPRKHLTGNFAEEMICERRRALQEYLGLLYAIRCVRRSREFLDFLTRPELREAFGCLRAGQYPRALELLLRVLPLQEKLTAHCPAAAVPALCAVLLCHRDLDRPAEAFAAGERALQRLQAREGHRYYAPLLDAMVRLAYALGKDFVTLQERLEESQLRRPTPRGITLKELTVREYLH
B5: "N-acyl-aromatic-L-amino acid amidohydrolase (carboxylate-forming)" (Homo sapiens), Q96HD9 (parent)
chain: MCSLPVPREPLRRVAVTGGTHGNEMSGVYLARHWLHAPAELQRASFSAVPVLANPAATSGCRRYVDHDLNRTFTSSFLNSRPTPDDPYEVTRARELNQLLGPKASGQAFDFVLDLHNTTANMGTCLIAKSSHEVFAMHLCRHLQLQYPELSCQVFLYQRSGEESYNLDSVAKNGLGLELGPQPQGVLRADIFSRMRTLVATVLDFIELFNQGTAFPAFEMEAYRPVGVVDFPRTEAGHLAGTVHPQLQDRDFQPLQPGAPIFQMFSGEDLLYEGESTVYPVFINEAAYYEKGVAFVQTEKFTFTVPAMPALTPAPSPAS
partner: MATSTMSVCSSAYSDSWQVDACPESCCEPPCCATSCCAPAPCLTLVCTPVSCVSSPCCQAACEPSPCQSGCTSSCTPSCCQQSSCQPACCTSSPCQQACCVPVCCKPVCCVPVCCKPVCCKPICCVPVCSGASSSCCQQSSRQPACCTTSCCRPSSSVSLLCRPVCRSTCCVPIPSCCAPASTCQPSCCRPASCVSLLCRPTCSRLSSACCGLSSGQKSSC
B6: Maspardin (Homo sapiens), Q9NZD8 (parent)
chain: MGEIKVSPDYNWFRGTVPLKKIIVDDDDSKIWSLYDAGPRSIRCPLIFLPPVSGTADVFFRQILALTGWGYRVIALQYPVYWDHLEFCDGFRKLLDHLQLDKVHLFGASLGGFLAQKFAEYTHKSPRVHSLILCNSFSDTSIFNQTWTANSFWLMPAFMLKKIVLGNFSSGPVDPMMADAIDFMVDRLESLGQSELASRLTLNCQNSYVEPHKIRDIPVTIMDVFDQSALSTEAKEEMYKLYPNARRAHLKTGGNFPYLCRSAEVNLYVQIHLLQFHGTKYAAIDPSMVSAEELEVQKGSLGISQEEQ
partner: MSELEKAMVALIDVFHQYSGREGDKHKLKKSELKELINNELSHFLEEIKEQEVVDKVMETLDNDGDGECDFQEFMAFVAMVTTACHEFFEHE
B7: GRIP and coiled-coil domain-containing protein 1 (Homo sapiens), Q96CN9 (parent)
chain: MEKFGMNFGGGPSKKDLLETIETQKKQLLQYQARLKDVVRAYKSLLKEKEALEASIKVLSVSHEADVGLAGVQLPGLTFPDSVDDRCSTHSEDSTGTATSLDTAASLTSTKGEFGVEDDRPARGPPPPKSEEASWSESGVSSSSGDGPFAGGEVDKRLHQLKTQLATLTSSLATVTQEKSRMEASYLADKKKMKQDLEDASNKAEEERARLEGELKGLQEQIAETKARLITQQHDRAQEQSDHALMLRELQKLLQEERTQRQDLELRLEETREALAGRAYAAEQMEGFELQTKQLTREVEELKSELQAIRDEKNQPDPRLQELQEEAARLKSHFQAQLQQEMRKTALAEDQLRQQSQVEEQRVAALENQISEVSELLGTYEKAKQKDQLAIQKLKERILQLDLENKTLALAASSRSPLDSHGEESSLDVNVLKDKMEKLKRLLQVAARKSQVTLDVEKLCDLEIMPSSEAADGEKATALYYQQELKQLKEEFERYKMRAQVVLKSKNTKDGNLGKELEAAQEQLAELKEKYISLRLSCEELEHQHQQEADDWKQELARLQQLHRQELERCQLDFRDRTLKLEEELHKQRDRALAVLTEKDLELEQLRSVALASGLPGRRSPVGGGGPGDPADTSSSDSLTQALQLAAANEPTFFLYAEQLARKEVEITSLRKQKHRLEVEVHQLQDRLLEEGERHREEVAALQSHIEKNIRDQSREGANLEYLKNIIYRFLTLPDSLGRQQTLTAILTILHFSPEEKQVIMRLPTSASWWPSGKR

Variants of: B1
Conditions: with ca094_human C1orf94, Q6P1W5
With N34S the “effect of a mutation on the interaction” value was “with no effect”. With I155V the “effect of a mutation on the interaction” value was “with no effect”. A107S was tested, and the “effect of a mutation on the interaction” value was “with no effect”.

Variants of: B2
Conditions: with uimc1_human UIMC1, Q96RL1
With R415Q the “effect of a mutation on the interaction” value was “with no effect”.

Variants of: B3
Conditions: with aka7g_human AKAP7, Q9P0M2
Chain of aka7g_human AKAP7, Q9P0M2 (Q9P0M2 whole entry): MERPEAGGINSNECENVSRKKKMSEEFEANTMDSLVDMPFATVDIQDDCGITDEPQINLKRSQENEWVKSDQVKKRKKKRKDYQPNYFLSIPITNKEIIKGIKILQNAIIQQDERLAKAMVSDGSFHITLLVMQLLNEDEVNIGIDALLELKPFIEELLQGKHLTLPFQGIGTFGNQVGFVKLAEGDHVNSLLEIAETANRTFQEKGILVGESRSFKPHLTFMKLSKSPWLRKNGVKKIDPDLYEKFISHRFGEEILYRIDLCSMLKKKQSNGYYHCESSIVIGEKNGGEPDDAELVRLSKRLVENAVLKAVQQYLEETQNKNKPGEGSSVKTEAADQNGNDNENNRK
For R126Q, the “effect of a mutation on the interaction” value was “disrupting interaction strength”.

Variants of: B4
Conditions: with snx20_human SNX20, Q7Z614
For S688L, the “effect of a mutation on the interaction” value was “with no effect”. In the case of R8Q, the “effect of a mutation on the interaction” value is reported as “with no effect”.

Variants of: B5
Conditions: with kr103_human KRTAP10-3, P60369
With R8Q the “effect of a mutation on the interaction” value was “with no effect”.

Variants of: B6
Conditions: with S100B
A180T was tested, and the “effect of a mutation on the interaction” value was “disrupting interaction strength”. With H272D the “effect of a mutation on the interaction” value was “disrupting interaction strength”.

Variants of: B7
Conditions: with mcrs1_human MCRS1, Q96EZ8
Chain of mcrs1_human MCRS1, Q96EZ8 (Q96EZ8 whole entry): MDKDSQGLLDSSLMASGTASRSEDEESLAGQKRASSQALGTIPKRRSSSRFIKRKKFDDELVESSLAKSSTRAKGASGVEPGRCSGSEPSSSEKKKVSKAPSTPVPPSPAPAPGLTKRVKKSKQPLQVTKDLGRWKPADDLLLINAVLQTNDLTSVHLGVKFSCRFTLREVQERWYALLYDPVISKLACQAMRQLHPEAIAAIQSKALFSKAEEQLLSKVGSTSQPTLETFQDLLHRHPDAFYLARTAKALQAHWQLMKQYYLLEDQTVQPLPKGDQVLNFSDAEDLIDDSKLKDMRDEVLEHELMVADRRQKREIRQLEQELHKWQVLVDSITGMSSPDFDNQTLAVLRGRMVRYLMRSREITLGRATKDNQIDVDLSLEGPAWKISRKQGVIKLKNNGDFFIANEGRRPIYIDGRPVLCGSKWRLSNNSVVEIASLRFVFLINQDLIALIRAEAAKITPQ
With A274T the “effect of a mutation on the interaction” value was “with no effect”.

Variants of: B7
Conditions: with amol2_human AMOTL2, Q9Y2J4
Chain of amol2_human AMOTL2, Q9Y2J4 (Q9Y2J4 whole entry): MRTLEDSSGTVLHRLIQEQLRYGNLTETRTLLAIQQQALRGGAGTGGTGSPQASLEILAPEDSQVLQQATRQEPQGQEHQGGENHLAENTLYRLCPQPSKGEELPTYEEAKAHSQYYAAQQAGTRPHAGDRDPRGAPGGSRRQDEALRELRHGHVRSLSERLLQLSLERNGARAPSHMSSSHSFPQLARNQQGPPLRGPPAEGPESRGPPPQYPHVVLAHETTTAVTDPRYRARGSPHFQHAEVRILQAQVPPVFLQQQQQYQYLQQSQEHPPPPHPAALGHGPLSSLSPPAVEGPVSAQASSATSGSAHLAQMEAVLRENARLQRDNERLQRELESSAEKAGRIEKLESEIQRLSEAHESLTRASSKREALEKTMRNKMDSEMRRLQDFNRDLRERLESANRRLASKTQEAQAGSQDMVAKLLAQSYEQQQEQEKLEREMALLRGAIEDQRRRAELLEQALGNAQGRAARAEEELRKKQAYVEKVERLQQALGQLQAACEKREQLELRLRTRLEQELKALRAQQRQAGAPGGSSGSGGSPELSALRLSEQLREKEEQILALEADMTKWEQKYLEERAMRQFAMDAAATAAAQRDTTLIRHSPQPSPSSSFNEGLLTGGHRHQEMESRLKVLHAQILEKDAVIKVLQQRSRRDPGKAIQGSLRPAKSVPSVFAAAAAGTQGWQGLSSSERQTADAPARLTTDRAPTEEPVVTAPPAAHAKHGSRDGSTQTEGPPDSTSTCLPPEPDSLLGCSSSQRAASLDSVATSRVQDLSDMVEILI
In the case of A274T, the “effect of a mutation on the interaction” value is reported as “with no effect”.
